The labels stand for the following.
B1: IgG with feline IgG1a Fc variant S428L, I377Y (antibody)
heavy: DVQLVESGGDLVKPGGSLRLTCVASGLSLTSDSMSWVRQAPGKGLQWVSTLWSNRGTYYTDSVKGRFTISKDNAENTLYLQMNNLKTEDTATYYCASIYYYEADYLHWYFDFWGQGALVTVSSASTTAPSVFPLAPSCGTTSGATVALACLVLGYFPEPVTVSWNSGALTSGVHTFPAVLQASGLYSLSSMVTVPSSRWLSDTFTCNVAHPPSNTKVDKTVRKTDHPPGPKPCDCPKCPPPEAAGGPSIFIFPPKPKDTLSISRTPEVTCLVVDLGPDDSDVQITWFVDNTQVYTAKTSPREEQFNSTYRVVSVLPILHQDWLKGKEFKCKVNSKSLPSPIERTISKAKGQPHEPQVYVLPPAQEELSRNKVSVTCLIKSFHPPDYAVEWEITGQPEPENNYRTTPPQLDSDGTYFVYSKLSVDRSHWQRGNTYTCSVLHEALHSHHTQKSLTQSPG
light: EIQMTQSPTSLSASVGDRVTITCRASEGIANNLSWYQQTPGKAPKLLIYATSNLHSGVPSRFSGSGSGTDFTLTISSLQPEDFATYYCQQGFKWPLTFGGGTKLEITRSDAQPSVFLFQPSLDELHTGSASIVCILNDFYPKEVNVKWKVDGVVQNKGIQESTTEQNSKDSTYSLSSTLTMSSTEYQSHEKFSCEVTHKSLASTLVKSFNRSECQRE
notes: Printed '1377Y' read as I377Y; IgG1a constant domain with MALA mutations (M234A, L244A as printed); variable domains from WO 2023/97275; also called S428L, 1377Y
B2: IgG with feline IgG1a Fc variant S428L, R392D (antibody)
heavy: DVQLVESGGDLVKPGGSLRLTCVASGLSLTSDSMSWVRQAPGKGLQWVSTLWSNRGTYYTDSVKGRFTISKDNAENTLYLQMNNLKTEDTATYYCASIYYYEADYLHWYFDFWGQGALVTVSSASTTAPSVFPLAPSCGTTSGATVALACLVLGYFPEPVTVSWNSGALTSGVHTFPAVLQASGLYSLSSMVTVPSSRWLSDTFTCNVAHPPSNTKVDKTVRKTDHPPGPKPCDCPKCPPPEAAGGPSIFIFPPKPKDTLSISRTPEVTCLVVDLGPDDSDVQITWFVDNTQVYTAKTSPREEQFNSTYRVVSVLPILHQDWLKGKEFKCKVNSKSLPSPIERTISKAKGQPHEPQVYVLPPAQEELSRNKVSVTCLIKSFHPPDIAVEWEITGQPEPENNYDTTPPQLDSDGTYFVYSKLSVDRSHWQRGNTYTCSVLHEALHSHHTQKSLTQSPG
light: EIQMTQSPTSLSASVGDRVTITCRASEGIANNLSWYQQTPGKAPKLLIYATSNLHSGVPSRFSGSGSGTDFTLTISSLQPEDFATYYCQQGFKWPLTFGGGTKLEITRSDAQPSVFLFQPSLDELHTGSASIVCILNDFYPKEVNVKWKVDGVVQNKGIQESTTEQNSKDSTYSLSSTLTMSSTEYQSHEKFSCEVTHKSLASTLVKSFNRSECQRE
notes: IgG1a constant domain with MALA mutations (M234A, L244A as printed); variable domains from WO 2023/97275
B3: IgG with feline IgG1a Fc variant S428L, R392E (antibody)
heavy: DVQLVESGGDLVKPGGSLRLTCVASGLSLTSDSMSWVRQAPGKGLQWVSTLWSNRGTYYTDSVKGRFTISKDNAENTLYLQMNNLKTEDTATYYCASIYYYEADYLHWYFDFWGQGALVTVSSASTTAPSVFPLAPSCGTTSGATVALACLVLGYFPEPVTVSWNSGALTSGVHTFPAVLQASGLYSLSSMVTVPSSRWLSDTFTCNVAHPPSNTKVDKTVRKTDHPPGPKPCDCPKCPPPEAAGGPSIFIFPPKPKDTLSISRTPEVTCLVVDLGPDDSDVQITWFVDNTQVYTAKTSPREEQFNSTYRVVSVLPILHQDWLKGKEFKCKVNSKSLPSPIERTISKAKGQPHEPQVYVLPPAQEELSRNKVSVTCLIKSFHPPDIAVEWEITGQPEPENNYETTPPQLDSDGTYFVYSKLSVDRSHWQRGNTYTCSVLHEALHSHHTQKSLTQSPG
light: EIQMTQSPTSLSASVGDRVTITCRASEGIANNLSWYQQTPGKAPKLLIYATSNLHSGVPSRFSGSGSGTDFTLTISSLQPEDFATYYCQQGFKWPLTFGGGTKLEITRSDAQPSVFLFQPSLDELHTGSASIVCILNDFYPKEVNVKWKVDGVVQNKGIQESTTEQNSKDSTYSLSSTLTMSSTEYQSHEKFSCEVTHKSLASTLVKSFNRSECQRE
notes: as for B2
B4: IgG with feline IgG1a Fc variant S428L, L309D (antibody)
heavy: DVQLVESGGDLVKPGGSLRLTCVASGLSLTSDSMSWVRQAPGKGLQWVSTLWSNRGTYYTDSVKGRFTISKDNAENTLYLQMNNLKTEDTATYYCASIYYYEADYLHWYFDFWGQGALVTVSSASTTAPSVFPLAPSCGTTSGATVALACLVLGYFPEPVTVSWNSGALTSGVHTFPAVLQASGLYSLSSMVTVPSSRWLSDTFTCNVAHPPSNTKVDKTVRKTDHPPGPKPCDCPKCPPPEAAGGPSIFIFPPKPKDTLSISRTPEVTCLVVDLGPDDSDVQITWFVDNTQVYTAKTSPREEQFNSTYRVVSVLPIDHQDWLKGKEFKCKVNSKSLPSPIERTISKAKGQPHEPQVYVLPPAQEELSRNKVSVTCLIKSFHPPDIAVEWEITGQPEPENNYRTTPPQLDSDGTYFVYSKLSVDRSHWQRGNTYTCSVLHEALHSHHTQKSLTQSPG
light: EIQMTQSPTSLSASVGDRVTITCRASEGIANNLSWYQQTPGKAPKLLIYATSNLHSGVPSRFSGSGSGTDFTLTISSLQPEDFATYYCQQGFKWPLTFGGGTKLEITRSDAQPSVFLFQPSLDELHTGSASIVCILNDFYPKEVNVKWKVDGVVQNKGIQESTTEQNSKDSTYSLSSTLTMSSTEYQSHEKFSCEVTHKSLASTLVKSFNRSECQRE
notes: as for B2
B5: IgG with feline IgG1a Fc variant S428L, R301L (antibody)
heavy: DVQLVESGGDLVKPGGSLRLTCVASGLSLTSDSMSWVRQAPGKGLQWVSTLWSNRGTYYTDSVKGRFTISKDNAENTLYLQMNNLKTEDTATYYCASIYYYEADYLHWYFDFWGQGALVTVSSASTTAPSVFPLAPSCGTTSGATVALACLVLGYFPEPVTVSWNSGALTSGVHTFPAVLQASGLYSLSSMVTVPSSRWLSDTFTCNVAHPPSNTKVDKTVRKTDHPPGPKPCDCPKCPPPEAAGGPSIFIFPPKPKDTLSISRTPEVTCLVVDLGPDDSDVQITWFVDNTQVYTAKTSPREEQFNSTYLVVSVLPILHQDWLKGKEFKCKVNSKSLPSPIERTISKAKGQPHEPQVYVLPPAQEELSRNKVSVTCLIKSFHPPDIAVEWEITGQPEPENNYRTTPPQLDSDGTYFVYSKLSVDRSHWQRGNTYTCSVLHEALHSHHTQKSLTQSPG
light: EIQMTQSPTSLSASVGDRVTITCRASEGIANNLSWYQQTPGKAPKLLIYATSNLHSGVPSRFSGSGSGTDFTLTISSLQPEDFATYYCQQGFKWPLTFGGGTKLEITRSDAQPSVFLFQPSLDELHTGSASIVCILNDFYPKEVNVKWKVDGVVQNKGIQESTTEQNSKDSTYSLSSTLTMSSTEYQSHEKFSCEVTHKSLASTLVKSFNRSECQRE
notes: as for B2
B6: IgG with feline IgG1a Fc variant S428L, R301V (antibody)
heavy: DVQLVESGGDLVKPGGSLRLTCVASGLSLTSDSMSWVRQAPGKGLQWVSTLWSNRGTYYTDSVKGRFTISKDNAENTLYLQMNNLKTEDTATYYCASIYYYEADYLHWYFDFWGQGALVTVSSASTTAPSVFPLAPSCGTTSGATVALACLVLGYFPEPVTVSWNSGALTSGVHTFPAVLQASGLYSLSSMVTVPSSRWLSDTFTCNVAHPPSNTKVDKTVRKTDHPPGPKPCDCPKCPPPEAAGGPSIFIFPPKPKDTLSISRTPEVTCLVVDLGPDDSDVQITWFVDNTQVYTAKTSPREEQFNSTYVVVSVLPILHQDWLKGKEFKCKVNSKSLPSPIERTISKAKGQPHEPQVYVLPPAQEELSRNKVSVTCLIKSFHPPDIAVEWEITGQPEPENNYRTTPPQLDSDGTYFVYSKLSVDRSHWQRGNTYTCSVLHEALHSHHTQKSLTQSPG
light: EIQMTQSPTSLSASVGDRVTITCRASEGIANNLSWYQQTPGKAPKLLIYATSNLHSGVPSRFSGSGSGTDFTLTISSLQPEDFATYYCQQGFKWPLTFGGGTKLEITRSDAQPSVFLFQPSLDELHTGSASIVCILNDFYPKEVNVKWKVDGVVQNKGIQESTTEQNSKDSTYSLSSTLTMSSTEYQSHEKFSCEVTHKSLASTLVKSFNRSECQRE
notes: as for B2
B7: IgG with feline IgG1a Fc variant S428L, R301Y (antibody)
heavy: DVQLVESGGDLVKPGGSLRLTCVASGLSLTSDSMSWVRQAPGKGLQWVSTLWSNRGTYYTDSVKGRFTISKDNAENTLYLQMNNLKTEDTATYYCASIYYYEADYLHWYFDFWGQGALVTVSSASTTAPSVFPLAPSCGTTSGATVALACLVLGYFPEPVTVSWNSGALTSGVHTFPAVLQASGLYSLSSMVTVPSSRWLSDTFTCNVAHPPSNTKVDKTVRKTDHPPGPKPCDCPKCPPPEAAGGPSIFIFPPKPKDTLSISRTPEVTCLVVDLGPDDSDVQITWFVDNTQVYTAKTSPREEQFNSTYYVVSVLPILHQDWLKGKEFKCKVNSKSLPSPIERTISKAKGQPHEPQVYVLPPAQEELSRNKVSVTCLIKSFHPPDIAVEWEITGQPEPENNYRTTPPQLDSDGTYFVYSKLSVDRSHWQRGNTYTCSVLHEALHSHHTQKSLTQSPG
light: EIQMTQSPTSLSASVGDRVTITCRASEGIANNLSWYQQTPGKAPKLLIYATSNLHSGVPSRFSGSGSGTDFTLTISSLQPEDFATYYCQQGFKWPLTFGGGTKLEITRSDAQPSVFLFQPSLDELHTGSASIVCILNDFYPKEVNVKWKVDGVVQNKGIQESTTEQNSKDSTYSLSSTLTMSSTEYQSHEKFSCEVTHKSLASTLVKSFNRSECQRE
notes: as for B2

The test deals with T1, feline FcRn (soluble portion of large subunit p51 isoform X1 with C-terminal 6xHis-tag, co-expressed with … (feline, UniProt Q5MGS7 21-118)).
T1 construct: Heterodimer made by co-expression in CHO cells, purified on HisTrap FF; also called FcRn complex
T1 sequence (chain, as listed by the source limits assumed, chain 1 of 2): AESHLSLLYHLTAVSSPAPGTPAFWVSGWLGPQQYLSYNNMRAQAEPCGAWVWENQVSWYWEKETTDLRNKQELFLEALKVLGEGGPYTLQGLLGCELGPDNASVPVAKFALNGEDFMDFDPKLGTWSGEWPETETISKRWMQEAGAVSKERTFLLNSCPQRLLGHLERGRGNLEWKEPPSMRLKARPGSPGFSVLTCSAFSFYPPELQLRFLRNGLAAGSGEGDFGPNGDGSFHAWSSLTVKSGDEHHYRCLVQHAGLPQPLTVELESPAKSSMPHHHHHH
T1 sequence (Q5MGS7 other isoform, or with tags, fused parts or gaps limits assumed, chain 2 of 2): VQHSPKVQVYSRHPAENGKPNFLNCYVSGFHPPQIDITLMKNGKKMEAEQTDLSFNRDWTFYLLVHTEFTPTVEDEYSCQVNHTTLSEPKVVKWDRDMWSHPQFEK
The experiment in a line: SPR, Biacore T200, IgG captured on Protein L chip, feline FcRn flowed over, pH 5.9, 1:1 fit. As to the method: The feline FcRn binding experiments at pH 5.9 were completed on a BIACORE™ T200 instrument. A Series S Protein L Sensor chip (Cytiva, Cat. No. BR29205137) was used to capture the antibody variants via the kappa (κ) light chain. The feline variants were captured onto the protein L chip at a flow rate of 10 μL/min for 60 seconds. 1×PBX-P+(Cytiva Cat 28995084) was adjusted to pH 5.9 for the running buffer. The feline FcRn was flowed over the sensor chip at 30 μL/min for 120 seconds contact time and 600 seconds dissociation time. Regeneration of the flow cells was completed by flowing over 10 mM glycine, pH 1.7 at 30 μL/min for 30 seconds. The data were evaluated by the BIACORE™T200 Evaluation software v3.2.1 by fitting to a 1:1 kinetic interaction model.
For B1, binding was characterised by a dissociation constant (Kd) of 107 nM, the off-rate constant (koff) was determined as 0.117 s⁻¹ and the on-rate constant (kon) was found to be 1.09e+06 M⁻¹ s⁻¹.
Take B2: the Kd amounted to 104 nM, the koff is 0.0934 s⁻¹ and the kon is 904000 M⁻¹ s⁻¹.
In the case of B3, binding was characterised by a dissociation constant (Kd) of 96.5 nM, the koff worked out at 0.0772 s⁻¹ and the kon was found to be 801000 M⁻¹ s⁻¹.
For B4 the same measures were 200 nM, 0.12 s⁻¹ and 597000 M⁻¹ s⁻¹.
In turn, B5 yielded a Kd of 115 nM, a dissociation rate constant (koff) of 0.116 s⁻¹ and a kon of 1.01e+06 M⁻¹ s⁻¹.
The matching figures for B6: 109 nM, 0.0832 s⁻¹ and 763000 M⁻¹ s⁻¹.
For B7 the same measures were 99.1 nM, 0.0706 s⁻¹ and 712000 M⁻¹ s⁻¹.

For the origin of these results see patent US20240209062A1 (INVETX, published 2024).
